Where a chain is given by its changes, count along the chain named.
B1: TRAIL.R2-6: His-TRAIL (95-281) with 189Gln, 191Lys, 193Arg, 264Arg, 266Leu, 267Gln; TRAIL-R2 selective mutant (protein)
chain: TSEETISTVQEKQQNISPLVRERGPQRVAAHITGTRGRSNTLSSPNSKNEKALGRKINSWESSRSGHSFLSNLHLRNGELVIHEKGFYYIYSQTQFKFREEIKENTKNDKQMVQYIYKYTSYPDPILLMKSARNSCWSKDAEYGLYSIYQGGIFELKENDRIFVSVTNERLLQMDHEASFFGAFLVG
modifications: biotin (site not stated) in the DISC analysis only; not biotinylated in the apoptosis assays
B2: wild type: His-tagged human recombinant TRAIL residues 95-281, wild type sequence (protein)
chain: B1 chain with Q95Y, K97R, R99Q, R170H, L172I, Q173D
modifications: biotin (site not stated) in the DISC analysis only; not biotinylated in the apoptosis assays

Tests used:
[1] = biological target: TRAIL receptor 1 (TRAIL-R1) (Homo sapiens (Human)) (UniProt O00220)
[2] = biological target: TRAIL receptor 1 (TRAIL-R1) (Homo sapiens (Human)) (UniProt O00220); remark: listed apart in the source
primary MCL cells = assay: Apoptosis in freshly isolated primary MCL cells with or without depsipeptide pre-treatment; assay type: cell-based, human; conditions: spontaneous apoptosis 23.4±2.9%
Experimental: Cell lines were also pre-incubated for 30 min with a TRAIL-R1 blocking Ab and a TRAIL-R2 neutralizing Ab from Alexis and R&D systems, respectively, prior to exposure to TRAIL. Freshly isolated cells from patients with MCL were isolated, purified and incubated with different forms of TRAIL as described above for CLL cells. Samples were either analyzed immediately for apoptosis or stored at −80° C. for subsequent Western blotting. Other methods and reagents were as described (Inoue (2004 Cell Death Differ 11 Suppl 2, S193-206); MacFarlane et al., 2005 ibid).
(§1) Apoptosis was quantified by phosphatidylserine (PS) externalization in the presence of propidium iodide as described (MacFarlane et al., 2002 ibid.). Samples for Western blot analysis were prepared and caspase processing detected as described (Inoue et al., 2004 ibid.; MacFarlane et al., 2005 ibid.).
We also obtained three samples from patients with mantle cell lymphoma (MCL), an incurable and aggressive disease that accounts for ˜6% of all non-Hodgkin's lymphoma. There are no standard treatments for MCL and the prognosis is very poor particularly for the blastoid variant. MCL cells were isolated and exposed to the different forms of TRAIL after pre-treatment for 16 h with depsipeptide (5 nM).

Jurkat cells [3] = assay: Apoptosis by phosphatidylserine (PS) externalization in Jurkat cells; assay type: cell-based
Experimental: Cells were also exposed to HGS-ETR1 or HGSETR2 (1 μg ml^−1). C: Ramos or Jurkat cells were pre-incubated for 30 min either alone or with TRAIL-R1 blocking Ab or TRAIL-R2 neutralizing Ab (5 μg ml^−1). […] D: Ramos and Jurkat cells were exposed to wt TRAIL or TRAIL mutants as described above and processing of caspase-3 and -8 determined by Western blot analysis. The asterisk indicates a non-specific band. The lower panel of the blot for detection of the caspase-8 p18 subunit was exposed for twice as long as the upper panel. Apoptosis was assessed by phosphatidylserine externalization and results expressed as the Means±SEM of at least 3 separate determinations. […]
as §1
(§2) Ramos and Jurkat T cells (clone E6-1) were cultured as described (MacFarlane et al, 2005 ibid.). The breast tumour cell line, MCF-7 (clone F43) was cultured as described previously (MacFarlane et al., 2000 J. Cell Biol. 148, 1239-1254). Cells were cultured for either 4 h (Ramos and Jurkat) or 6 h (MCF-7) with His-TRAIL (MacFarlane et al, 1997 J Biol Chem 272, 25417-25420), HGS-ETR1 or HGS-ETR2 (Human Genome Sciences), or a mutant form of His-TRAIL (MacFarlane et al, 2005 ibid.). Samples were analyzed for apoptosis, Western blotting, or TRAIL DISC activation as described (MacFarlane et al, 2005 ibid.; MacFarlane et al. 2002 Oncogene 21, 6809-6818). Mutants of His-TRAIL (residues 95-281) were generated using the Quik-Change site-directed mutagenesis kit (Stratagene, Calif.), confirmed by DNA sequencing, expressed in E. coli and purified as described (MacFarlane et al, 1997 ibid.). For siRNA targeting of TRAIL-R1/-R2, MCF-7 cells were seeded into six-well plates immediately prior to effectene-mediated RNAi transfection with either a negative control siRNA (30 nM, Ambion, #4611), or preannealed siRNA oligonucleotides for TRAIL-R1 or TRAIL-R2 (30 nM, Ambion), with the sequence and validity described (Ren et al, 2004 Mol. Biol. Cell vol 15 pp 5064-5074). After 40 h of transfection the cells were collected and total TRAIL-R1 or TRAIL-R2 levels assessed. Where indicated, RNAi transfected MCF-7 cells were either left untreated or exposed to wt-TRAIL and apoptosis assessed by the extent of Bax activation, determined using the conformation specific Bax MAb, clone 3 (Dewson et al, 2003 Oncogene vol 22 pp 2643-54).

primary CLL cells = assay: Apoptosis in freshly isolated CLL cells after depsipeptide; assay type: cell-based, human; conditions: depsipeptide 10 nM 16 h, then 6 h ligand or antibody, FIG. 2C
Experimental: (§3) After exposure of the cells for 30 min, DISC complexes were isolated and analyzed for the indicated proteins by Western blotting. To provide an unstimulated receptor control (u/s), biotinylated wt or mutant TRAIL was added to lysate from untreated cells. C: Freshly isolated cells from patients with CLL were incubated for 16 h either alone or in the presence of depsipeptide (10 nM). […] The different symbols used indicate data from six individual patients and the solid line indicates the Mean.
(§4) Ramos, an Epstein-Barr virus-negative Burkitt's lymphoma cell line, and Jurkat T cells (clone E6-1) were cultured as described (MacFarlane et al (2005 Cell Death and Differentiation vol 12 pages 773-782)). Blood samples were obtained from CLL patients, with patient consent and local ethical committee approval and CLL cells purified as described (MacFarlane et al (2002 Oncogene 21, 6809-6818). Cells were incubated for 16 h with depsipeptide (10 nM), provided by Dr. E. Sausville (NCI, USA). Cells were then cultured for a further 6 h with either HGSETR1 or HGS-ETR2, agonistic mAbs to TRAIL-R1 or -R2, respectively (Human Genome Sciences, Rockville, Md.), His-TRAIL-LE (a recombinant TRAIL with low endotoxin—Alexis Corporation, Nottingham, UK), His-TRAIL, a similar form of human recombinant TRAIL (MacFarlane et al (1997 J Biol Chem 272, 25417-25420)) but not further purified to reduce endotoxin levels or a mutant form of His-TRAIL as described (MacFarlane et al., 2005 ibid.). Cell lines were also pre-incubated for 30 min with a TRAIL-R1 blocking Ab and a TRAIL-R2 neutralizing Ab from Alexis and R&D systems, respectively, prior to exposure to TRAIL. Freshly isolated cells from patients with MCL were isolated, purified and incubated with different forms of TRAIL as described above for CLL cells. Samples were either analyzed immediately for apoptosis or stored at −80° C. for subsequent Western blotting. Other methods and reagents were as described (Inoue (2004 Cell Death Differ 11 Suppl 2, S193-206); MacFarlane et al., 2005 ibid).
as §1

Ramos cells [4] = assay: Caspase-8 and -3 processing by Western blot in Ramos cells; assay type: cell-based; conditions: FIG. 1D
Experimental: (§5) Cells were also exposed to HGS-ETR1 or HGSETR2 (1 μg ml^−1). C: Ramos or Jurkat cells were pre-incubated for 30 min either alone or with TRAIL-R1 blocking Ab or TRAIL-R2 neutralizing Ab (5 μg ml^−1). […] D: Ramos and Jurkat cells were exposed to wt TRAIL or TRAIL mutants as described above and processing of caspase-3 and -8 determined by Western blot analysis. The asterisk indicates a non-specific band. The lower panel of the blot for detection of the caspase-8 p18 subunit was exposed for twice as long as the upper panel. Apoptosis was assessed by phosphatidylserine externalization and results expressed as the Means±SEM of at least 3 separate determinations.
as §1
(§6) To confirm that the mutants were inducing apoptosis, we examined their effects on the processing of caspase-8, the apical caspase in death receptor-induced apoptosis and caspase-3, an effector caspase.

[5] = test system: TRAIL DISC in Jurkat cells; assay: DISC analysis with biotinylated TRAIL in Jurkat cells; assay type: cell-based; conditions: biotinylated ligand 500 ng ml^−1, 30 min
Experimental: as §3
(§7) Ramos or Jurkat cells (5×10^7 cells per treatment) were exposed to biotin-tagged recombinant His-TRAIL (biotinylated TRAIL) or one of its mutant forms (500 ng ml^−1) for 30 min and then DISC formation assessed as described previously (MacFarlane et al., 2002 ibid.).

Jurkat cells [6] = assay: Caspase-8 and -3 processing by Western blot in Jurkat cells; assay type: cell-based; conditions: FIG. 1D
Experimental: as §5, §1, §6

Ramos cells [7] = assay: Apoptosis by phosphatidylserine (PS) externalization in Ramos cells; assay type: cell-based; conditions: for % PS+ cells, Ramos: 4 h exposure, 500 ng ml^−, Mean ± SEM of at least three determinations
Experimental: as §5, §4, §1
as §2, with “Where indicated, RNAi transfected MCF-7 cells were either left untreated or exposed to wt-TRAIL and apoptosis assessed by the extent of Bax activation, determined using the conformation specific Bax MAb, clone 3 (Dewson et al, 2003 Oncogene vol 22 pp 2643-54).” left out

[8] = test system: TRAIL DISC in Ramos cells; assay: DISC analysis with biotinylated TRAIL in Ramos cells; assay type: cell-based; conditions: biotinylated ligand 500 ng ml^−1, 30 min
Experimental: as §3, §7

[9] = PS externalization, compared with wt TRAIL

Row | Molecule | sensitization of CLL cells to induced apoptosis by depsipeptide (primary CLL cells) | processing of caspase-8 and caspase-3 (Ramos cells [4]) | DISC formation: receptor bound, FADD and caspase-8 recruitment [5] | processing of caspases-8 and -3 (Jurkat cells [6]) | % PS+ cells, Ramos (Ramos cells [7]) | DISC formation: receptor bound, FADD and caspase-8 recruitment [8] | further results
1 | HGS-ETR1 (antibody) |  |  |  |  |  |  | apoptosis of primary MCL cells after depsipeptide (5 nM, 16 h) [1]: 68.2%
2 | His-TRAIL (wild type, residues 95-281) (from UniProt P50591) (ligand) |  |  |  |  |  |  | apoptosis of primary MCL cells without depsipeptide [1]: 25.5%; % PS+ cells (apoptosis by phosphatidylserine externalization), Ramos cells, 4 h, 500 ng/ml [2]: 41.8 % PS+ cells
3 | C/C=C1\NC(=O)[C@H]2CSSCC/C=C/[C@H](CC(=O)N[C@H](C(C)C)C(=O)N2)OC(=O)[C@H](C(C)C)NC1=O [depsipeptide, reference compound] |  |  |  |  |  |  | apoptosis, depsipeptide alone (primary MCL cells; depsipeptide 5 nM 16 h): 35.4±5%
4 | B1 | lack of activity and not | not | bound TRAIL-R2 extensively in the DISC | most potent | 9.4 ± 1.6% | failed to recruit FADD or caspase-8 to the DISC | inhibition of induced apoptosis by TRAIL-R1 blocking Ab (Jurkat cells [3]; 30 min pre-incubation with Ab (5 μg ml^−1)): not; % PS+ cells, Jurkat (Jurkat cells [3]; 4 h exposure, 500 ng ml^−, Mean ± SEM of at least three determinations): 58.4 ± 11.6%; ability to induce apoptosis in Jurkat cells (in words) (Jurkat cells [3]; [9]): potently induced apoptosis; ability to induce apoptosis in Ramos cells (in words) (Ramos cells [7]; [9]): not in Ramos cells
5 | B2 | sensitized CLL cells | induced the processing | bound TRAIL-R2 extensively in the DISC | most potent | 41.8 ± 5.2% | bound both TRAIL-R1 and -R2, and recruited FADD and caspase-8 | apoptosis, ligand alone (primary MCL cells; no depsipeptide): 25.5±3.8%

Source: patent publication US20090325867A1, “RECEPTOR-SPECIFIC TUMOUR NECROSIS FACTOR-RELATED APOPTOSIS-INDUCING LIGAND (TRAIL) VARIANTS” (MEDICAL RESEARCH COUNCIL, priority 2005, published 2009)
